Legend:
aspartokinase = test: Aspartokinase (AK) activity of cell-disrupted solutions of Corynebacterium glutamicum strains, with and without L-lysine/L-threonine; assay type: biochemical, Corynebacterium glutamicum (Brevibacterium lactofermentum); conditions: for 2 mM Lys + Thr (desensitization degree of inhibition): 2 mM lysine + threonine; for 2 mM Lys + Thr (desensitization degree of inhibition) / 5 mM Lys (desensitization degree of inhibition) / Specific activity / 5 mM Thr (desensitization degree of inhibition): plasmids introduced into AJ12036; for 5 mM Lys (desensitization degree of inhibition): lysine 5 mM; for Specific activity: Table 5; for 5 mM Thr (desensitization degree of inhibition): threonine 5 mM
Source text: When a wild type strain is used as a donor for the DNA fragment containing the AK gene, a DNA fragment containing a wild type AK gene can be obtained. The DNA fragment containing the gene for AK in which synergistic feedback inhibition by L-lysine and L-threonine is substantially desensitized can be obtained by using a mutant strain in which synergistic feedback inhibition on the AK activity by L-lysine and L-threonine is substantially desensitized. The mutant strain can be obtained, for example, from a group of cells subjected to an ordinary mutation treatment, ultraviolet light irradiation, or a treatment with a mutating agent such as N-methyl-N'-nitro-N-nitrosoguanidine (NTG). The AK activity can be measured by using a method described in Miyajima, R. et al., The Journal of Biochemistry (1968), 63(2), 139-148.
Strains were prepared by introducing the wild type AK plasmid p399AKYB and the mutant AK plasmid p399AK9B respectively into AJ12036 strain (FERM P-7559) as a wild type strain of Corynebacterium glutamicum (Brevibacterium lactofermentum). The genes were introduced into Corynebacterium by means of an electric pulse method. The aspartokinase activity was measured for Corynebacterium glutamicum (Brevibacterium lactofermentum) AJ12036 strain as a host, AJ12690 strain harboring the wild type AK plasmid, and AJ12691 (FERM P12918) strain harboring the mutant AK plasmid. The activity was measured in accordance with an ordinary method (see Miyajima, R. et al., The Journal of Biochemistry (1968) 63(2), 139-148). […]
Strains were prepared by introducing 8 kinds of the plasmids shown in Table 3 into AJ12036 strain (FERM P-7559) as a wild type strain of Corynebacterium glutamicum (Brevibacterium lactofermentum) in the same manner as Example 3. The AK activity was measured for each of the strains. […] The desensitization degree of inhibition by lysine and/or threonine was similar to those in Example 6.

[1] = system: Corynebacterium glutamicum (Brevibacterium lactofermentum) AJ12036; test: L-lysine productivity evaluated by cultivation in production medium; assay type: cell-based; conditions: plasmids introduced into AJ12036; cultivation as in Example 3
Procedure: The lysine productivity was evaluated by cultivation for the wild type strain AJ12036, the wild type AK plasmid-harboring strain AJ12690, and the mutant AK plasmid-harboring strain AJ12691 (FERM P-12918). The evaluation by cultivation was performed by inoculating the strains to a production medium (containing glucose 100 g, (NH4)2 SO4 55 g, KH2 PO4 1 g, MgSO4.7H2 O 1 g, soybean protein acid hydrolysate "Mamenou" (product of Ajinomoto Co., Ltd., trade name) 50 ml, FeSO4.7H2 O 10 mg, MnSO4.4H2 O 10 mg, nicotinic acid amide 5 mg, and CaCO3 50 g in 1 l of pure water, pH 8.0), and cultivating them with reciprocatory shaking at 31.5° C. for 72 hours. […] The plasmid-holding ratio upon completion of the cultivation was measured by using an index of chloramphenicol resistance as a drug resistance marker of the plasmid.
The lysine productivity was further evaluated by cultivation for the 9 kinds of these strains by using a method similar to that in Example 3.

AK [2] = test: Thermal stability of AK, treatment at 55° C. for 1.5 hour; assay type: biochemical, Corynebacterium glutamicum
Procedure: The activity-holding ratio after a treatment at 55° C. for 90 minutes is indicated by %.
Thermal stability was investigated as an index of stability of the enzyme structure constructed by the introduction of mutation. The treatment condition was set at 55° C. for 1.5 hour in which the activity of the wild type AK was about 80%.

AK [3] = test: AK enzyme activity and inhibition by lysine/threonine in cell-free extracts of AK-deficient Escherichia coli Gif106M1 transformants; assay type: biochemical, Corynebacterium glutamicum; conditions: for Specific activity: Table 4; for 5 mM Lys + Thr (degree of desensitization of inhibition, activity-holding ratio): lysine 5 mM+threonine 5 mM; for 5 mM Lys + Thr (degree of desensitization of inhibition, activity-holding ratio) / 5 mM Lys (degree of desensitization of inhibition, activity-holding ratio) / 5 mM Thr (degree of desensitization of inhibition, activity-holding ratio): activity without addition = 100%, E. coli Gif106M1 extracts; for 5 mM Lys (degree of desensitization of inhibition, activity-holding ratio): lysine 5 mM; for 5 mM Thr (degree of desensitization of inhibition, activity-holding ratio): threonine 5 mM
Source text: Bacteriol. 112, 84-92 (1972), Theze, J. et al., J. […] It is known that most of genes of bacteria belonging to the genus Corynebacterium are expressed in Escherichia coli. In addition, the AK gene was ligated at a position downstream from lac promoter on pHSG399. Thus it was postulated that the gene could be expressed in Escherichia coli. […] Thus it was confirmed that AK from the bacteria belonging to the genus Corynebacterium was expressed and operated in cells of Escherichia coli. Subsequently, cell-free extracts were prepared from bacterial cells, and the enzyme activity of AK was measured. Upon measurement of the enzyme activity of AK, various concentrations of lysine and threonine were added to enzyme reaction solutions to investigate the degree of inhibition (FIG. 2). […] (Ki value: 0.4 mM→5.0 mM). […] Cell-free extracts were prepared, and enzymes were analyzed.

[4] = E. coli Gif106M1 cell-free extracts

| Molecule | 2 mM Lys + Thr (desensitization degree of inhibition) (aspartokinase) [%] | 5 mM Lys (desensitization degree of inhibition) (aspartokinase) [%] | Specific activity (aspartokinase) [mU/mg protein] | 5 mM Thr (desensitization degree of inhibition) (aspartokinase) [%] | Lys--HCl [1] [g/L] | thermal stability compared with the wild type (AK [2]; FIG. 6) | inhibition by lysine alone as compared with the wild type (AK [3]; [4]) | inhibition by threonine desensitized (AK [3]; [4]) [%] | Specific activity (AK [3]; [4]) [mU/mg protein] | 5 mM Lys + Thr (degree of desensitization of inhibition, activity-holding ratio) (AK [3]) [%] | 5 mM Lys (degree of desensitization of inhibition, activity-holding ratio) (AK [3]) [%] | 5 mM Thr (degree of desensitization of inhibition, activity-holding ratio) (AK [3]) [%] | activity after thermal treatment (activity-holding ratio) (AK [2]) | degree of desensitization of inhibition, ranking (aspartokinase; lysine alone, threonine alone and concerted inhibition, plasmids in AJ12036) | concerted inhibition by lysine+threonine (AK [3]; [4]) | degree of activation by threonine (AK [3]; [4]) | specific activity relative to that of the wild type (AK [3]; fraction of wild type specific activity) | AK activity (AK [3]; [4]) |
| --- | --- | --- | --- | --- | --- | --- | --- | --- | --- | --- | --- | --- | --- | --- | --- | --- | --- | --- |
| Thr: mutant aspartokinase 279 Ala→Thr from AJ3463, plasmid p399AK9 (p399AK9B); SEQ ID NO: 4 and 6 (protein) MEEAVLTGVATDKSEAKVTVLGISDKPGETAKVFRALADAEINIDMVLQNVSSVEDGTTDITFTCPRADGRRAMEILKKLQVQGNWTNVLYDDQVGKVSLVGAGMKSHPGVTAEFMEALRDVNVNIELISTSEIRISVLIREDDLDAAARALHEQFQLGGEDEAVVYAGTGR | 78.3 | 58.7 | 374.4 | 109.1 | 24.25 | higher stability than that of the wild type | little improvement | 100 | 12.9 | 50.4 | 47.0 | 103.5 |  |  |  |  |  |  |
| Wild type: wild type aspartokinase of Corynebacterium glutamicum ATCC 13869, plasmid p399AKY (p399AKYB); SEQ ID NO: 3 and 5 (protein) MEEAVLTGVATDKSEAKVTVLGISDKPGEAAKVFRALADAEINIDMVLQNVSSVEDGTTDITFTCPRADGRRAMEILKKLQVQGNWTNVLYDDQVGKVSLVGAGMKSHPGVTAEFMEALRDVNVNIELISTSEIRISVLIREDDLDAAARALHEQFQLGGEDEAVVYAGTGR | 6.2 | 52.7 | 316.4 | 86.8 | 0.00 |  |  |  | 15.3 | 9.2 | 42.3 | 62.3 | about 80% |  |  |  |  |  |
| Pro: mutant aspartokinase 279 Ala→Pro, plasmid p399AKAP (p399AKAPB) (protein, UniProt P26512 1-421, looked up, variant A279P) Aspartokinase: MALVVQKYGGSSLESAERIRNVAERIVATKKAGNDVVVVCSAMGDTTDELLELAAAVNPVPPAREMDMLLTAGERISNALVAMAIESLGAEAQSFTGSQAGVLTTERHGNARIVDVTPGRVREALDEGKICIVAGFQGVNKETRDVTTLGRGGSDTTAVALAAALNADVCEIYSDVDGVYTADPRIVPNAQKLEKLSFEEMLELAAVGSKILVLRSVEYARAFNVPLRVRSSYSNDPGTLIAGSMEDIPVEEAVLTGVATDKSEAKVTVLGISDKPGEPAKVFRALADAEINIDMVLQNVSSVEDGTTDITFTCPRSDGRRAMEILKKLQVQGNWTNVLYDDQVGKVSLVGAGMKSHPGVTAEFMEALRDVNVNIELISTSEIRISVLIREDDLDAAARALHEQFQLGGEDEAVVYAGTGR | 85.2 | 77.5 | 125.0 | 123.2 | 25.11 |  | mitigated |  | 2.8 | 103.8 | 76.9 | 126.9 |  | highest degree of desensitization of inhibition | desensitized | not less than 120% | about 1/5 |  |
| Ser: mutant aspartokinase 279 Ala→Ser, plasmid p399AKAS (p399AKASB) (protein, UniProt P26512 1-421, looked up, variant A279S) Aspartokinase: MALVVQKYGGSSLESAERIRNVAERIVATKKAGNDVVVVCSAMGDTTDELLELAAAVNPVPPAREMDMLLTAGERISNALVAMAIESLGAEAQSFTGSQAGVLTTERHGNARIVDVTPGRVREALDEGKICIVAGFQGVNKETRDVTTLGRGGSDTTAVALAAALNADVCEIYSDVDGVYTADPRIVPNAQKLEKLSFEEMLELAAVGSKILVLRSVEYARAFNVPLRVRSSYSNDPGTLIAGSMEDIPVEEAVLTGVATDKSEAKVTVLGISDKPGESAKVFRALADAEINIDMVLQNVSSVEDGTTDITFTCPRSDGRRAMEILKKLQVQGNWTNVLYDDQVGKVSLVGAGMKSHPGVTAEFMEALRDVNVNIELISTSEIRISVLIREDDLDAAARALHEQFQLGGEDEAVVYAGTGR | 37.0 | 55.0 | 406.8 | 114.4 | 5.72 |  | equivalent to that in the wild type |  | 8.2 | 18.4 | 52.6 | 131.6 |  |  | enhanced |  |  |  |
| Asp: mutant aspartokinase 279 Ala→Asp, plasmid p399AKAD (protein, UniProt P26512 1-421, looked up, variant A279D) Aspartokinase: MALVVQKYGGSSLESAERIRNVAERIVATKKAGNDVVVVCSAMGDTTDELLELAAAVNPVPPAREMDMLLTAGERISNALVAMAIESLGAEAQSFTGSQAGVLTTERHGNARIVDVTPGRVREALDEGKICIVAGFQGVNKETRDVTTLGRGGSDTTAVALAAALNADVCEIYSDVDGVYTADPRIVPNAQKLEKLSFEEMLELAAVGSKILVLRSVEYARAFNVPLRVRSSYSNDPGTLIAGSMEDIPVEEAVLTGVATDKSEAKVTVLGISDKPGEDAKVFRALADAEINIDMVLQNVSSVEDGTTDITFTCPRSDGRRAMEILKKLQVQGNWTNVLYDDQVGKVSLVGAGMKSHPGVTAEFMEALRDVNVNIELISTSEIRISVLIREDDLDAAARALHEQFQLGGEDEAVVYAGTGR |  |  |  |  |  |  |  |  | 1.5 |  |  |  |  |  |  |  |  | inactivated |

Reference: patent US5688671A, “Mutant aspartokinase gene” (Ajinomoto Co., Inc., priority 1993, dated 1997)
